From patent US20140087995A1 (published 2014)
Changes are numbered by the printed parent chain. Numbered stars: 1 amine (or outer) side, 2 acyl side, 3 side chain; on linkers, the order of the positions; unused ones are H or OH. Bridge positions count the residues as written; N and C are the ends. * marks the point of attachment. C20 diacid = O=C(O)CCCCCCCCCCCCCCCCCCC(=O)*; γGlu = O=C(O)[C@H](CCC(=O)[*:2])N[*:1]; AEEA = NCCOCCOCC(=O)O

T1: human calcitonin receptor (human, UniProt P30988 25-474)
T1 construct: whole, on cells; Used as membranes prepared from the transfected cells (Assay VII); also called hCTR; hCT
T1 sequence (looked up): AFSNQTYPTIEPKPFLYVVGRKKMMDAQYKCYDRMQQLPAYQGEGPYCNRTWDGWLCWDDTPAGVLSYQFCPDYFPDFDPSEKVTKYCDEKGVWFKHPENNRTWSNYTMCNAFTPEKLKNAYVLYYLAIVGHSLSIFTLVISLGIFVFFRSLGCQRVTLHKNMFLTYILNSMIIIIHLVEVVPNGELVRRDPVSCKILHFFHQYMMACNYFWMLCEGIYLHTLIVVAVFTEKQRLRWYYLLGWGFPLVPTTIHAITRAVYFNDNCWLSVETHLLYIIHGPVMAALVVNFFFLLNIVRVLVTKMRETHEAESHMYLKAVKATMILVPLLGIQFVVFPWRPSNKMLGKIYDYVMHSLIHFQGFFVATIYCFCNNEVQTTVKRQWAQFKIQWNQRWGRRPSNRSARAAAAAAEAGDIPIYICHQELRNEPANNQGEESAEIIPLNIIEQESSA

T2: rat calcitonin receptor (rat, UniProt P32214 25-516)
T2 construct: whole, on cells; Used as membranes prepared from the transfected cells; also called rCTR; rat calcitonin (a) receptor
T2 sequence (looked up): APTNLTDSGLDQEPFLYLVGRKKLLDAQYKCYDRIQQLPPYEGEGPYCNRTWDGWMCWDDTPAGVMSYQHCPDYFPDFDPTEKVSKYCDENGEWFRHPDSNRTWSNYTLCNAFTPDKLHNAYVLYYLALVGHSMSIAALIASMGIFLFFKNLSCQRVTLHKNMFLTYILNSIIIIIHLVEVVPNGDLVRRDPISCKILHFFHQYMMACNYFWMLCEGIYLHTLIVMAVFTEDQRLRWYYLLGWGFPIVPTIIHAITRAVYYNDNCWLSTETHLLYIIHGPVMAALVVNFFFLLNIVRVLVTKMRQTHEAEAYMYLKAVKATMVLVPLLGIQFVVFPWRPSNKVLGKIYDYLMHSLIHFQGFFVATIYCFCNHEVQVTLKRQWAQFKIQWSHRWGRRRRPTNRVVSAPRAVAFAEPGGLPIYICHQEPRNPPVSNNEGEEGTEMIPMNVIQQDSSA

T3: rat amylin receptor (rat calcitonin receptor + rat RAMP 3) (rat, UniProt P32214 25-516; Q9JJ73 23-147)
T3 construct: whole, on cells; Used as membranes prepared from the transfected cells; also called rAmylin-R; rat amylin 3(a) receptor
T3 sequence (looked up) 1: T2 sequence (looked up)
T3 sequence (looked up) 2: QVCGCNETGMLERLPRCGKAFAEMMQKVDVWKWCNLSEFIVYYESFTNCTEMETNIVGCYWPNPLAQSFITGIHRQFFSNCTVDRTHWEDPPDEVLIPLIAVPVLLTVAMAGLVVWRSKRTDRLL

B1: N^α1-[2-[2-[2-[[2-[2-[2-[[(4S)-4-carboxy-4-(19-carboxynonadecanoylamino)butanoyl]amino]ethoxy]ethoxy]acetyl]amino]ethoxy]ethoxy]acetyl]-[Glu14,Arg17,Pro21,Pro27 … (peptide)
peptide: KCNTATCATQRLAEFLRHSSPNFGAIPSSTNVGSNTY
modifications: C20 diacid-gGlu-2xOEG acylated on the alpha amino group of the N-terminal residue (Lys 1); disulfide Cys2-Cys7; C-terminal amide
notes: Derivative of human amylin; also called compound 19
B2: N^α1-[(4S)-4-carboxy-4-(19-carboxynonadecanoylamino)butanoyl]-[Arg17,Pro21,Pro27,Glu35]-h-amylin (peptide)
peptide: B1 peptide with E14N, N35E
modifications: C20 diacid-gGlu acylated on the alpha amino group of the N-terminal residue (Lys 1); disulfide Cys2-Cys7; C-terminal amide
notes: Derivative of human amylin; also called compound 23
B3: N^α1-[2-[2-[2-[[2-[2-[2-[[(4S)-4-carboxy-4-(19-carboxynonadecanoylamino)butanoyl]amino]ethoxy]ethoxy]acetyl]amino]ethoxy]ethoxy]acetyl]-[Arg17,Pro21,Pro27]-h-am … (peptide)
peptide: B1 peptide with E14N
modifications: C20 diacid-gGlu-2xOEG acylated on the alpha amino group of the N-terminal residue (Lys 1); disulfide Cys2-Cys7; C-terminal amide
notes: Derivative of human amylin; also called compound 24
B4: N^α1-[(4S)-4-carboxy-4-(19-carboxynonadecanoylamino)butanoyl]-[Arg17,Pro21,Pro27,Lys35]-h-amylin (peptide)
peptide: B1 peptide with E14N, N35K
modifications: C20 diacid-gGlu acylated on the alpha amino group of the N-terminal residue (Lys 1); disulfide Cys2-Cys7; C-terminal amide
notes: Derivative of human amylin; also called compound 34
B5: N^α1-[(4S)-4-carboxy-4-(19-carboxynonadecanoylamino)butanoyl]-[Arg17,Pro21,Pro27,Arg34]-h-amylin (peptide)
peptide: B1 peptide with E14N, S34R
modifications: C20 diacid-gGlu acylated on the alpha amino group of the N-terminal residue (Lys 1); disulfide Cys2-Cys7; C-terminal amide
notes: Derivative of human amylin; also called compound 39
B6: N^α1-[(4S)-4-carboxy-4-(19-carboxynonadecanoylamino)butanoyl]-[Arg17,Pro21,Pro27,His34]-h-amylin (peptide)
peptide: B1 peptide with E14N, S34H
modifications: C20 diacid-gGlu acylated on the alpha amino group of the N-terminal residue (Lys 1); disulfide Cys2-Cys7; C-terminal amide
notes: Derivative of human amylin; also called compound 40
B7: N^α1-[2-[2-[2-[[2-[2-[2-[[(4S)-4-carboxy-4-(19-carboxynonadecanoylamino)butanoyl]amino]ethoxy]ethoxy]acetyl]amino]ethoxy]ethoxy]acetyl]-[Glu14,Arg17,Pro21,Pro27 … (peptide)
peptide: {C20 diacid-γGlu-AEEA-AEEA}-KCNTATCATQRLAEFLRHSSPNFGAIPSSTNVGSNTP-NH2
modifications: disulfide 2-7
SMILES: CC[C@H](C)[C@H](NC(=O)[C@H](C)NC(=O)CNC(=O)[C@H](Cc1ccccc1)NC(=O)[C@H](CC(N)=O)NC(=O)[C@@H]1CCCN1C(=O)[C@H](CO)NC(=O)[C@H](CO)NC(=O)[C@H](Cc1c[nH]cn1)NC(=O)[C@H](CCCNC(=N)N)NC(=O)[C@H](CC(C)C)NC(=O)[C@H](Cc1ccccc1)NC(=O)[C@H](CCC(=O)O)NC(=O)[C@H](C)NC(=O)[C@H](CC(C)C)NC(=O)[C@H](CCCNC(=N)N)NC(=O)[C@H](CCC(N)=O)NC(=O)[C@@H](NC(=O)[C@H](C)NC(=O)[C@@H]1CSSC[C@H](NC(=O)[C@H](CCCCN)NC(=O)COCCOCCNC(=O)COCCOCCNC(=O)CC[C@H](NC(=O)CCCCCCCCCCCCCCCCCCC(=O)O)C(=O)O)C(=O)N[C@@H](CC(N)=O)C(=O)N[C@@H]([C@@H](C)O)C(=O)N[C@@H](C)C(=O)N[C@@H]([C@@H](C)O)C(=O)N1)[C@@H](C)O)C(=O)N1CCC[C@H]1C(=O)N[C@@H](CO)C(=O)N[C@@H](CO)C(=O)N[C@H](C(=O)N[C@@H](CC(N)=O)C(=O)N[C@H](C(=O)NCC(=O)N[C@@H](CO)C(=O)N[C@@H](CC(N)=O)C(=O)N[C@H](C(=O)N1CCC[C@H]1C(N)=O)[C@@H](C)O)C(C)C)[C@@H](C)O
notes: Derivative of human amylin; also called compound 20

Biological target: T1, human calcitonin receptor
Assay: ratio IC50 human calcitonin receptor / IC50 human amylin receptor (Assays VII and V)
Protocol: The resulting pellet was resuspended, homogenized and centrifuged (20.000 rpm, 15 min) in a buffer containing 20 mM Na-HEPES and 0.1 mM EDTA (pH 7.4, buffer 2). The resulting pellet was resuspended in buffer 2 and protein concentration was measured (BCA protein Assay, Pierce). The homogenate was kept cold during the whole procedure. The membranes were kept at −80° C. until use. The assay was performed in a 384 well Optiplate (PerkinElmer) in a total volume of 40 ul. Membranes were mixed with SPA beads. Final concentration of membranes 35 ng/μL final and SPA beads was 0.05 mg/well. Test-compounds were dissolved in DMSO and further diluted in assay buffer (50 mM Hepes, pH 7.4, 1 mM CaCl2, 5 mM MgCl₂, 0.1% OA and 0.02% Tween20). […] The final mixture was incubated with shaking at 400 rpm for 120 min at 25° C. prior to centrifugation (1500 rpm, 10 min). Samples were analyzed on TopCounter™ (Packard). The IC₅₀ was calculated using (one site binding competition analysis) GraphPad Prism5 as a measure of receptor affinity.
Membranes were prepared in the following way; the cells were rinsed with PBS and incubated with Versene for approximately 5 min before harvesting. The cells were flushed with PBS and the cell-suspension was centrifuged for 5 min at 1000 rpm. Cells were homogenized (Ultrathurrax) in a buffer containing 20 mM Na-HEPES and 10 mM EDTA (pH 7.4) and centrifuged at 20.000 rpm for 15 min. The resulting pellet was resuspended, homogenized and centrifuged (20.000 rpm, 15 min) in a buffer containing 20 mM Na-HEPES and 0.1 mM EDTA (pH 7.4, buffer 2). The resulting pellet was resuspended in buffer 2 and protein concentration was measured (BCA protein Assay, Pierce). The homogenate was kept cold during the whole procedure. The membranes were kept at −80° C. until use. Assay was performed in a 384 well Optiplate (PerkinElmer) in a total volume of 40 ul. Membranes were mixed with SPA beads.

Binder	Ratio hCT/hAmylin binding
B1	36.7
B2	25
B3	90
B4	64.4
B5	29
B6	31.1
B7	3.6

Biological target: T2, rat calcitonin receptor
Assay: ratio IC50 rat calcitonin receptor / IC50 rat amylin receptor (Assays VIII and VI)

Binder	Ratio rCT/rAmylin binding
B1	93.6
B2	71.3
B3	116
B4	52
B5	54.5
B6	46.2
B7	6.4

Biological target: T3, rat amylin receptor (rat calcitonin …)
Assay: SPA competition with 125I-rat amylin, membranes of BHK cells with rat calcitonin receptor + rat RAMP3 (Assay VI)

Binder	IC50 [nM]
B1	1.02
B2	1.12
B3	3.01
B4	1.72
B5	1.77
B6	1.5
B7	0.696

Biological target: T2, rat calcitonin receptor
Assay: SPA competition with 125I-calcitonin, membranes of BHK cells with rat calcitonin receptor (Assay VIII)

Binder	IC50 [nM]
B1	95.6
B2	79.9
B3	350
B4	89.2
B5	96.4
B6	69.2
B7	4.43
